The target in one series is T1, GluLm (Limosilactobacillus mucosae, UniProt A0A508YIL6).
T1 construct: gene bglB; full-length, C-terminal poly-His tag (pLATE31), expressed in E. coli BL21(DE3), GraviTrap purified, 81 kDa
T1 sequence (A0A508YIL6 1-735): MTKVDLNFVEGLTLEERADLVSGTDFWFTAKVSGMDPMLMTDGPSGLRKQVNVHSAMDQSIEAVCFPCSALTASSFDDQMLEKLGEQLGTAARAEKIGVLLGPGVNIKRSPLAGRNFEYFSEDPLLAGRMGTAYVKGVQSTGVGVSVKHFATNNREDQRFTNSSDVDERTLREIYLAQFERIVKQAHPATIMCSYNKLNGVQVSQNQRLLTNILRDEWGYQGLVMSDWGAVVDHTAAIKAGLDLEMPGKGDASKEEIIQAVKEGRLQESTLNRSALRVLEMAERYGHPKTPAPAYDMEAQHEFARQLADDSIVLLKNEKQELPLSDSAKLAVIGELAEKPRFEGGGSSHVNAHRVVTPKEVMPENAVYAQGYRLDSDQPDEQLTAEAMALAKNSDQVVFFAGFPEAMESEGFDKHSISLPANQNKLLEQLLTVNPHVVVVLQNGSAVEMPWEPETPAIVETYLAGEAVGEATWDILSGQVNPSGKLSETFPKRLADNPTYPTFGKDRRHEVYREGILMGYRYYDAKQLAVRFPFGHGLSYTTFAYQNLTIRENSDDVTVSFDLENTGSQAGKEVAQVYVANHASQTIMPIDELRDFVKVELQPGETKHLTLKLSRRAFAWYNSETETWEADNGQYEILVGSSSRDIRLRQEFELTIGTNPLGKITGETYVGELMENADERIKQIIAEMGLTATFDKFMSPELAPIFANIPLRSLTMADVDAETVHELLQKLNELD
Nature of the series: inhibition of pNPG hydrolysis, p-nitrophenol release at […] nm. It is filed as biochemical. The note with it: 100000 µM; free enzyme; 1 mmol L^−1 pNPG; 100 mmol L^−1 sodium phosphate pH 6.5; 37°C; 5 min.

Substrate in series [1]: O=[N+]([O-])c1ccc(O[C@@H]2OC[C@@H](O)[C@H](O)[C@H]2O)cc1
Nature of the series: purified protein. The format is biochemical, Limosilactobacillus mucosae. The note with it: free enzyme; 0.1 to 10 mmol L^−1 substrate; pH and temperature not restated for kinetics.

Substrate in series [2]: C[C@H]1O[C@@H](Oc2ccc([N+](=O)[O-])cc2)[C@H](O)[C@@H](O)[C@H]1O
The series can be described thus: purified protein. The note with it: free enzyme; 0.1 to 10 mmol L^−1 substrate; pH and temperature not restated for kinetics. It is filed as biochemical, Limosilactobacillus mucosae.

Substrate in series [3]: O=[N+]([O-])c1ccc(O[C@@H]2O[C@H](CO)[C@@H](O)[C@H](O)[C@H]2O)cc1
The series can be described thus: purified protein. The format is biochemical, Limosilactobacillus mucosae. The following applies: free enzyme; 0.1 to 10 mmol L^−1 substrate; pH and temperature not restated for kinetics.

Substrate in series [4]: O=[N+]([O-])c1ccc(O[C@@H]2O[C@H](CO)[C@H](O)[C@H](O)[C@H]2O)cc1
The series can be described thus: purified protein. The format is biochemical, Limosilactobacillus mucosae. The following applies: free enzyme; 0.1 to 10 mmol L^−1 substrate; pH and temperature not restated for kinetics.

Substrate in series [5]: C[C@@H]1O[C@@H](Oc2ccc([N+](=O)[O-])cc2)[C@@H](O)[C@H](O)[C@@H]1O
Nature of the series: purified protein. It is filed as biochemical, Limosilactobacillus mucosae. The note with it: free enzyme; 0.1 to 10 mmol L^−1 substrate; pH and temperature not restated for kinetics.

Regarding `OC[C@H]1OC(O)[C@H](O)[C@@H](O)[C@@H]1O` (stereo partly drawn) [glucose], on GluLm, the “Relative activity (%)” value was found to be 48.3 ± 5.7%.

B1: GluLm (Limosilactobacillus mucosae) (protein)
chain: MTKVDLNFVEGLTLEERADLVSGTDFWFTAKVSGMDPMLMTDGPSGLRKQVNVHSAMDQSIEAVCFPCSALTASSFDDQMLEKLGEQLGTAARAEKIGVLLGPGVNIKRSPLAGRNFEYFSEDPLLAGRMGTAYVKGVQSTGVGVSVKHFATNNREDQRFTNSSDVDERTLREIYLAQFERIVKQAHPATIMCSYNKLNGVQVSQNQRLLTNILRDEWGYQGLVMSDWGAVVDHTAAIKAGLDLEMPGKGDASKEEIIQAVKEGRLQESTLNRSALRVLEMAERYGHPKTPAPAYDMEAQHEFARQLADDSIVLLKNEKQELPLSDSAKLAVIGELAEKPRFEGGGSSHVNAHRVVTPKEVMPENAVYAQGYRLDSDQPDEQLTAEAMALAKNSDQVVFFAGFPEAMESEGFDKHSISLPANQNKLLEQLLTVNPHVVVVLQNGSAVEMPWEPETPAIVETYLAGEAVGEATWDILSGQVNPSGKLSETFPKRLADNPTYPTFGKDRRHEVYREGILMGYRYYDAKQLAVRFPFGHGLSYTTFAYQNLTIRENSDDVTVSFDLENTGSQAGKEVAQVYVANHASQTIMPIDELRDFVKVELQPGETKHLTLKLSRRAFAWYNSETETWEADNGQYEILVGSSSRDIRLRQEFELTIGTNPLGKITGETYVGELMENADERIKQIIAEMGLTATFDKFMSPELAPIFANIPLRSLTMADVDAETVHELLQKLNELD
notes: full-length, C-terminal poly-His tag (pLATE31), expressed in E. coli BL21(DE3), GraviTrap purified, 81 kDa
As to B1, the Michaelis constant (Km) (in general, the substrate concentration at which the rate is half of its maximum) amounted to 760 ± 50 µM in the series “purified protein [1]”; 1030 ± 40 µM in “purified protein [2]”; 100 ± 10 µM in the series “purified protein [3]”; 2810 ± 180 µM in “purified protein [4]”; 2820 ± 240 µM in “purified protein [5]”. Further, the maximum rate (Vmax) (as a rule, the top rate of the reaction or transport when substrate is in excess) is 4.07 µmol/min in “purified protein [1]”; 1.64 µmol/min in “purified protein [2]”; 33.8 µmol/min in “purified protein [3]”; 0.86 µmol/min in the series “purified protein [4]”; 0.06 µmol/min in the series “purified protein [5]”. Further, the kcat (usually the maximal rate divided by the concentration of active sites) was 552 s⁻¹ in “purified protein [1]”; 223 s⁻¹ in “purified protein [2]”; 9120 s⁻¹ in “purified protein [3]”; 117 s⁻¹ in the series “purified protein [4]”; 7.8 s⁻¹ in the series “purified protein [5]”. Besides, the kcat/Km (commonly the turnover number divided by the Michaelis constant) came out at 729000 M⁻¹ s⁻¹ in the series “purified protein [1]”; 218000 M⁻¹ s⁻¹ in “purified protein [2]”; 8.66e+07 M⁻¹ s⁻¹ in the series “purified protein [3]”; 41900 M⁻¹ s⁻¹ in the series “purified protein [4]”; 2700 M⁻¹ s⁻¹ in “purified protein [5]”.

The record behind these values is publication PMC10774645, “Characterization and stabilization of GluLm and its application to deglycosylate dietary flavonoids and lignans” (Applied Microbiology and Biotechnology, 2024).
